In patent US20250326840A1 (QURE BIOTECHNOLOGY SHANGHAI, published 2025):
Values belong to the binder of their own block, whether it stands above or below them.

Tests used:
QP093 (human SIRPα V1 …) [1] = target: T1, QP093 (human SIRPα V1 ECD(E31-R370)-mFC(IgG2a)) (human); assay: ELISA, human SIRPα V1 recombinant protein (QP093) coated, HRP anti-human Fc detection
T1 construct: also called Human SIRPα V1 recombinant protein (QP093)
T1 chain: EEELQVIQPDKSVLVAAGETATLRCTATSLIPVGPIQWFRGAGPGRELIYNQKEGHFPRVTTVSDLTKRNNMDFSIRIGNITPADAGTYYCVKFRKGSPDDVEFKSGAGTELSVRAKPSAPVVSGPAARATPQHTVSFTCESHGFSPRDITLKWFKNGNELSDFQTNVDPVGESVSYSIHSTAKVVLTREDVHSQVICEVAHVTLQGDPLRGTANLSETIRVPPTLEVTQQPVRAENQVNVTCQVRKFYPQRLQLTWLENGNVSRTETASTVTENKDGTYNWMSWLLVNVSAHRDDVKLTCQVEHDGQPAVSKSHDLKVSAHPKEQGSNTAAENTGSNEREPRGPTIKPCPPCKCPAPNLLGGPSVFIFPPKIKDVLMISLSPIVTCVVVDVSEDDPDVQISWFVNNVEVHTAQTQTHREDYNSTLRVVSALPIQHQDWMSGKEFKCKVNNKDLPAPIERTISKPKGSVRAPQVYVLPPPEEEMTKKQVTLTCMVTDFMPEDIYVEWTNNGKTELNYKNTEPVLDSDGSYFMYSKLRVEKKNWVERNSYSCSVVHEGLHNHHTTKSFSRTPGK

QP096 (human SIRPα V2 …) [2] = target: T2, QP096 (human SIRPα V2 ECD(E31-R370)-flag-his) (human); assay: SPR, Biacore
T2 construct: the construct carries flag and his tags; also called SIRPαV2-Flag-his; Human SIRPα V2 (QP096)
Target sequence in this assay (chain, as listed by the source limits assumed): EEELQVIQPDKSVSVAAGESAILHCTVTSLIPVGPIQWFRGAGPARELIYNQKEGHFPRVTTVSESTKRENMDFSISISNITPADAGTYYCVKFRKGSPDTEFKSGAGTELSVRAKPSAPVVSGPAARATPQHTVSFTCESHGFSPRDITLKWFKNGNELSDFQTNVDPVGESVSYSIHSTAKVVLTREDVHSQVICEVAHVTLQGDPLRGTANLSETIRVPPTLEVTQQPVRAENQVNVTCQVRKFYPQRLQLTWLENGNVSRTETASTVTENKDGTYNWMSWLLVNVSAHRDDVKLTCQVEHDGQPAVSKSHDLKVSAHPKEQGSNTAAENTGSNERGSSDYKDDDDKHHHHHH

QP094 (human SIRPα V1 …) [3] = target: T3, QP094 (human SIRPα V1 ECD(E31-R370)-flag-his) (human, UniProt P78324 31-370); assay: SPR, Biacore
T3 construct: the construct carries flag and his tags; also called SIRPαV1-flag-his; SIRPαV1-his (QP094)

QP002 = target: T4, QP002 (biotinylated in the blocking assays, sites not given); assay: blocking ELISA: QP001.2 (CD47) coated, biotin-QP002 (SIRPα-FC) mixed with the antibody, HRP-streptavidin; blocked ligand: CD47; unit from the x axis Log[Conc.(ug/ml)]
T4 construct: also called SIRPα-FC; Biotin-QP002

QP093 (human SIRPα V1 …) [4] = target: T1, QP093 (human SIRPα V1 …); assay: ELISA, QP093 (SIRPα V1) coated, anti-hFab detection; unit from the x axis Log(Conc.(nM))
QP095 (human SIRPα V2 …) = target: T5, QP095 (human SIRPα V2 ECD(E31-R370)-mFC(IgG2a)) (human); assay: ELISA, QP095 (SIRPα V2) coated, anti-hFab detection; unit from the x axis Log(Conc.(nM))
T5 construct: also called human SIRPα V2 recombinant protein (QP095)

[5] = target: SIRPα V10 fusion Fc (mouse IgG2a) (human); assay: ELISA, SIRPα V10-mouse IgG2a Fc coated, anti-hFab detection; unit from the x axis Log(Conc.(nM))
QP096 (human SIRPα V2 …) [6] = target: T2, QP096 (human SIRPα V2 …); assay: binding ELISA, antigen coated
Target sequence in this assay (chain, as listed by the source limits assumed): as above

QP094 (human SIRPα V1 …) [7] = target: T3, QP094 (human SIRPα V1 …); assay: binding ELISA, antigen coated
QP096 (human SIRPα V2 …) [8] = target: T2, QP096 (human SIRPα V2 …); assay: SPR, Biacore 8K
QP094 (human SIRPα V1 …) [9] = target: T3, QP094 (human SIRPα V1 …); assay: SPR, Biacore 8K
[10] = target: SIRPα V2 fusion Fc (mouse IgG2a) (human); assay: ELISA, SIRPα V2-mouse IgG2a Fc coated, anti-hFab detection; unit from the x axis Log(Conc.(nM))
[11] = target: SIRPα V8 fusion Fc (mouse IgG2a) (human); assay: ELISA, SIRPα V8-mouse IgG2a Fc coated, anti-hFab detection; unit from the x axis Log(Conc.(nM))
[12] = target: SIRPα V3 fusion Fc (mouse IgG2a) (human); assay: ELISA, SIRPα V3-mouse IgG2a Fc coated, anti-hFab detection; unit from the x axis Log(Conc.(nM))
[13] = target: T6, QP532 (SIRPαV3-mFC(mIgG2a)) (human); assay: ELISA, human SIRPα V3 recombinant protein (QP532) coated, HRP anti-human Fc detection
T6 construct: also called human SIRPα V3 recombinant protein (QP532)

[14] = target: SIRPα V7 fusion Fc (mouse IgG2a) (human); assay: ELISA, SIRPα V7-mouse IgG2a Fc coated, anti-hFab detection; unit from the x axis Log(Conc.(nM))
[15] = target: T7, QP273 (cynoSIRPα2-flag-his T-557-14) (cynomolgus); assay: SPR, Biacore
T7 construct: also called cynomolgus SIRPα (QP273)
T7 chain: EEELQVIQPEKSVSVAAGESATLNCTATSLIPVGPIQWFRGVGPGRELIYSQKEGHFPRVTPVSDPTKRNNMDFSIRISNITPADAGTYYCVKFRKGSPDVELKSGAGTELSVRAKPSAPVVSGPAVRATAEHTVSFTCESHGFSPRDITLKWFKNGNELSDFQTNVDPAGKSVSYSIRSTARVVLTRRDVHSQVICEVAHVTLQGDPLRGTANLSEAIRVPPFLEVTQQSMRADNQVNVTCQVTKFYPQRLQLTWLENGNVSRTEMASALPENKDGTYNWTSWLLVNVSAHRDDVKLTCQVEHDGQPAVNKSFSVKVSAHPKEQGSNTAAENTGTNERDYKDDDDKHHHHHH

B1: QP250251 (18D5 analog) (antibody, human IgG4 S228P, kappa, V domains shown)
VH: QVQLQQPGAELVRPGSSVKLSCKASGYTFTSYWVHWVKQRPIQGLEWIGNIDPSDSDTHYNQKFKDKASLTVDKSSSTAYMQLSSLTFEDSAVYYCVRGGTGTMAWFAYWGQGTLVTVSA
VL: DVVMTQTPLSLPVSLGDQASISCRSSQSLVHSYGNTYLYWYLQKPGQSPKLLIYRVSNRFSGVPDRFSGSGSGTDFTLKISRVEAEDLGVYFCFQGTHVPYTFGSGTKLEIKR
notes: also called SIRPα antibody 18D5 from OSE
EC50 (QP093 (human SIRPα V1 …) [1]): 0.438 nM

B3: QP256279 (antibody, human IgG4, V domains shown)
VH: QVQLVQSGAEVKKPGASVKVSCKASGYTFTNYWINWVRQAPGQGLEWIAMIDPSDSETHYNQIFKDRATLTTDTSTSTAYMELRSLRSDDTAVYYCAMDYGSLYAMDYWGRGTLVTVSS
VL: DIVLTQSPDSLAVSLGERATINCRASQSVRSSGYNWIFWYQQKPGQPPKLLIYLASNRDSGVPDRFSGSGSGTDFTLTISSLQAEDVAVYYCQHSRELPTFGQGTKLEIK
notes: Human IgG4 heavy constant region and kappa CL
Kd (QP096 (human SIRPα V2 …) [2]): 0.0446 nM | Kd (QP094 (human SIRPα V1 …) [3]): 0.0354 nM | Kd [15]: 0.918 nM | IC50 (QP002): 12.9 ng/mL | EC50 [5]: 0.0682 nM | EC50 (QP096 (human SIRPα V2 …) [6]): 0.624 ng/mL | EC50 (QP094 (human SIRPα V1 …) [7]): 0.651 ng/mL | EC50 [10]: 0.0682 nM | EC50 [11]: 0.0851 nM | EC50 [12]: 0.0635 nM | EC50 [14]: 0.0707 nM

B5: QP37503751 (1H9 analog) (antibody, human IgG1, kappa, N297A, V domains shown)
VH: QVQLVQSGAEVKKPGASVKVSCKASGYTFTSYWITWVKQAPGQGLEWIGDIYPGSGSTNHIEKFKSKATLTVDTSISTAYMELSRLRSDDTAVYYCATGYGSSYGYFDYWGQGTLVTVSS
VL: DIQMTQSPSSLSASVGDRVTITCRASENIYSYLAWYQQKPGKAPKLLIYTAKTLAEGVPSRFSGSGSGTDFTLTISSLQPEDFATYYCQHQYGPPFTFGQGTKLEIKR
notes: also called hz1H9 hIgG1(N297A)
EC50 (QP093 (human SIRPα V1 …) [1]): 0.177 nM | EC50 [13]: 0.31 nM

Further binders by falling EC50 (QP093 (human SIRPα V1 …) [1]), results first:

EC50 (QP093 (human SIRPα V1 …) [1]): 0.442 nM | Kd (QP096 (human SIRPα V2 …) [2]): 13.6 nM | Kd (QP094 (human SIRPα V1 …) [3]): 3.43 nM | IC50 (QP002): 45.4 ng/mL | EC50 (QP093 (human SIRPα V1 …) [4]): 0.237 nM | EC50 (QP095 (human SIRPα V2 …)): 0.249 nM | EC50 [5]: 0.137 nM | EC50 (QP096 (human SIRPα V2 …) [6]): 3.31 ng/mL | EC50 (QP094 (human SIRPα V1 …) [7]): 5.29 ng/mL | Kd (QP096 (human SIRPα V2 …) [8]): 17.5 nM | koff (QP096 (human SIRPα V2 …) [8]): 0.0242 s⁻¹ | kon (QP096 (human SIRPα V2 …) [8]): 1.38e+06 M⁻¹ s⁻¹ | Kd (QP094 (human SIRPα V1 …) [9]): 4.69 nM | koff (QP094 (human SIRPα V1 …) [9]): 0.00386 s⁻¹ | kon (QP094 (human SIRPα V1 …) [9]): 822000 M⁻¹ s⁻¹ | EC50 [10]: 0.137 nM | EC50 [11]: 0.18 nM | EC50 [12]: 0.135 nM | EC50 [13]: 0.433 nM | EC50 [14]: 0.147 nM
B2: QP026249 (KWAR23 analog) (antibody, human IgG4 S228P, kappa)
heavy: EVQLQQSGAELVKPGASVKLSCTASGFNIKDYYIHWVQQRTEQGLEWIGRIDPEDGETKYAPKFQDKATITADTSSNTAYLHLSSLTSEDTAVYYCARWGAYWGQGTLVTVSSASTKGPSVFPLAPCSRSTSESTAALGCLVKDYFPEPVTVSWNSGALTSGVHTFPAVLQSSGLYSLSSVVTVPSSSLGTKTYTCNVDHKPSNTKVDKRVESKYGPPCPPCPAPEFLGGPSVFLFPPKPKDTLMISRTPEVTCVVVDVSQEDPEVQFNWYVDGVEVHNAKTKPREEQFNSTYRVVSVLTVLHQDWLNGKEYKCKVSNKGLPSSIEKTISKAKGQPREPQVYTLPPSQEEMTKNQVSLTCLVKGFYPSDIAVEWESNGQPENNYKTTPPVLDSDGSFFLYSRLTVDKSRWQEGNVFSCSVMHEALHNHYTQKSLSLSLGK
light: QIVLTQSPAIMSASPGEKVTLTCSASSSVSSSYLYWYQQKPGSSPKLWIYSTSNLASGVPARFSGSGSGTSYSLTISSMEAEDAASYFCHQWSSYPRTFGAGTKLELKRTVAAPSVFIFPPSDEQLKSGTASVVCLLNNFYPREAKVQWKVDNALQSGNSQESVTEQDSKDSTYSLSSTLTLSKADYEKHKVYACEVTHQGLSSPVTKSFNRGEC
notes: also called KAWA23 analog; control antibody KWAR23 (QP026249), human IgG4

EC50 (QP093 (human SIRPα V1 …) [1]): 0.161 nM | EC50 (QP093 (human SIRPα V1 …) [4]): 0.142 nM | EC50 (QP095 (human SIRPα V2 …)): 0.16 nM | EC50 [13]: 0.144 nM
B4: QP32700279 (antibody, human IgG1, kappa, L234A L235A, V domains shown)
VH: B3 VH
VL: DIVLTQSPDSLAVSLGERATINCRASQSVRSSGYNWIFWYQQKPGQPPKLLIYLASNRDSGVPDRFSGSGSGTDFTLTISSLQAEDVAVYYCQHSRELPTFGQGTKLEIKR
notes: also called SIRPα monoclonal antibody CHO71
